Measured values published in US20160369011A1.

Target: T1, human TEM1 (endosialin/CD248) (human) (UniProt Q9HCU0)
T1 sequence (chain, biotinylated in the SPR assay of Table 6 (sites not stated)): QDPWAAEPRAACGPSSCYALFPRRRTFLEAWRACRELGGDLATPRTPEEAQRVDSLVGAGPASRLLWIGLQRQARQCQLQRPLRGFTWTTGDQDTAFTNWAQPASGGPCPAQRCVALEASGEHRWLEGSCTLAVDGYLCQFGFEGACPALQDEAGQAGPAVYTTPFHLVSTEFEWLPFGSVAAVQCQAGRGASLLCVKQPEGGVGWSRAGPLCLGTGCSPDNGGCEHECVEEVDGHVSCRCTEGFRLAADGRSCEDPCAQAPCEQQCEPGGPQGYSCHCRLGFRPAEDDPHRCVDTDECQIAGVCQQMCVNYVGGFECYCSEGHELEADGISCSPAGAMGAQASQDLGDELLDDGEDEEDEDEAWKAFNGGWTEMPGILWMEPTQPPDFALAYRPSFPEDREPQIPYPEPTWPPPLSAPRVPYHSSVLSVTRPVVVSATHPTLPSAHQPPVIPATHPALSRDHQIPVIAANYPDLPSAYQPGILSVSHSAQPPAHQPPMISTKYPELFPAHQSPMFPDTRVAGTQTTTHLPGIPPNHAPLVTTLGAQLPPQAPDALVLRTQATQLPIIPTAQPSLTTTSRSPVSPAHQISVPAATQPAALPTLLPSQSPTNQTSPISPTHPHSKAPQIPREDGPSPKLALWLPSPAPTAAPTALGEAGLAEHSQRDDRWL
Assay: SPR (BIAcore), biotin-hTEM1 captured on CAP chip, antibody 0-50 nM as analyte

Binder | Kd | koff | kon
1-55-2 (rabbit anti-hTEM1 mAb) (antibody, V domains shown) VH: QSVEESGGDLVKPEGSLTLTCTASGFSFSSSYWGCWVRQAPGKGPEWIACIYGGSSGTTYYPNWAKGRFSISKTSSTTVTLQMASLTAADTATYFCARVTNGGDWDFKLWGPGTLVTISS VL: ELVMTQTPASVEVAVGGTVTIKCQASQSINTYLAWYQQKPGQPPKLLIYRASTLASGVPSRFKGSGSGTEFTLTISDLECADAATYYCQQSVRVIDVDNTFGGGTEVVVK | 0.015 nM | 5.8e-05 s⁻¹ | 3.7e+06 M⁻¹ s⁻¹
xi1-55-2 (rabbit/human chimerized 1-55-2 mAb) (antibody, human IgG1, kappa, V domains shown) VH: QSVEESGGDLVKPEGSLTLTCTASGFSFSSSYWGCWVRQAPGKGPEWIACIYGGSSGTTYYPNWAKGRFSISKTSSTTVTLQMASLTAADTATYFCARVTNGGDWDFKLWGPGTLVTISS VL: ELVMTQTPASVEVAVGGTVTIKCQASQSINTYLAWYQQKPGQPPKLLIYRASTLASGVPSRFKGSGSGTEFTLTISDLECADAATYYCQQSVRVIDVDNTFGGGTEVVVKR | 0.046 nM | 7.1e-05 s⁻¹ | 1.5e+06 M⁻¹ s⁻¹
